In the RNAGym collection of RNA variant scans (doi:10.7554/elife.80360):

B1: HDV Ribozyme (parent)
chain: GGCCGGCAUGGUCCCAGCCUCCUCGCUGGCGCCGGCUGGGCAACAUUCCGAGGGGACCGUCCCCUCGGUAAUGGCGAAUGGGACCCA

Variants of: B1
Experiment: self-cleavage, relative activity (ratio to wild type); higher = more cleavage; co-transcriptional

| Variant | self-cleavage |
| --- | --- |
| GGCCGGCAUGGUCCCAGCAUCCUCGCUGGCGCCGGCUGGGCAACAUUCCGGGGGGACCGUCCCCUCGGUAAUGGCGAAUGGGACCCA [C19A A51G] | 0.0712 |
| GGCCGGCAUGGUCCCAGCCUCCUCGCUGGCGCCGGCUGGGCGACAUUCCGAGGGGACCGCCCCCUCGGUAAUGGCGAAUGGGACCCA [A42G U60C] | 0.617 |
| GGCCGGCAUGGUCCCAGCCUCGUCGCUGGCGCCGGCUGGGCAACAUUCCGAGGGUACCGUCCCCUCGGUAAUGGCGAAUGGGACCCA [C22G G55U] | 0.0382 |
| GGCCGGCAUGGUCCCAGCCUCCUCGCUGGCGCGGGCUGGGCAACAUUCCGAGGGGACCGUCCCCUCGGUAAUGGCGAAUCGGACCCA [C33G G80C] | 0 |
| GGCGGGCAUGGUCCCAGCCUCCUCGCUGGCGCCGGCUGGGCAACAUUCCGAGGGGACCGCCCCCUCGGUAAUGGCGAAUGGGACCCA [C4G U60C] | 0.0875 |
| GGCCGGCAUGGUCCCAGCCUCCUCGCUGGCGCCGGCUUGGCAACAUUCCGAGGGGACCGUCCCCUCGGGAAUGGCGAAUGGGACCCA [G38U U69G] | 0.272 |
| GGCCGGCAUGGUCCCAGCCUCCUAGCUGGCGGCGGCUGGGCAACAUUCCGAGGGGACCGUCCCCUCGGUAAUGGCGAAUGGGACCCA [C24A C32G] | 0.213 |
| GGCCGGCAUGGUCCCAGCCUCCUCGCUGGCGCCGGCUGGGCAACAUUCCGAGGGGACCGUGCCCUCGGGAAUGGCGAAUGGGACCCA [C61G U69G] | 0.831 |
| GGCCGGCAUGGUCCCAGCCUCCUCGCUGGCGCCGGCUGGGCAAGAUUCCGAGGGGACCGUCCCCUCUGUAAUGGCGAAUGGGACCCA [C44G G67U] | 0.68 |
| GGCCGGGAUGGUCCCAGCCUCCUCGCUGGCGCCGGCUGGGCAACAUUCCGAGGGGACCGUCCCCACGGUAAUGGCGAAUGGGACCCA [C7G U65A] | 0 |
| GGCCGGCAUGGUCCCAGCCUCCUCGCUGGCGCCGGCUGGGCAACAUUCCGAGGGGACCGUCCCCUCGGUAAUGGGGAAUGGGACCCA [C75G] | 0.159 |
| GGCCGGUAUGGUCCCAGCCUCCUCGCUGGCGCCGGCUGGGCAACAUUCCGAGGGUACCGUCCCCUCGGUAAUGGCGAAUGGGACCCA [C7U G55U] | 0.815 |
| GGCCGGCAGGGUCCCAGCCUCCUAGCUGGCGCCGGCUGGGCAACAUUCCGAGGGGACCGUCCCCUCGGUAAUGGCGAAUGGGACCCA [U9G C24A] | 0.525 |
| GGCCGGCAUGGUCCCAGCCUCCUCGCUGACGCCGGCUGGGCAACAUUACGAGGGGACCGUCCCCUCGGUAAUGGCGAAUGGGACCCA [G29A C48A] | 0.262 |
| GGCCGGCAUGGUCCCAGCCUCCUCGCUGGCGCCGGCUGGGCAACAUUCCGAGGGGACCAUCCCCUCGGUAAUGGCGAAUGGCACCCA [G59A G82C] | 0.208 |
| GGCCGGCAUGGUCCCAGCCUCCUCGCUGACGCCGGCUGGGCAACAUUCCGAGGGGACCGUCCCCUCGGUAAUGGCGACUGGGACCCA [G29A A78C] | 0.0997 |
| GGCCGGUAUGGUCACAGCCUCCUCGCUGGCGCCGGCUGGGCAACAUUCCGAGGGGACCGUCCCCUCGGUAAUGGCGAAUGGGACCCA [C7U C14A] | 0.516 |
| GUCCGGCAUGGUCCCAGCCUCCUCGCUGGCGCCGGCUGGGCAACAUUCCGAGGGGACCGUCCCCUCGGUAAAGGCGAAUGGGACCCA [G2U U72A] | 0.0287 |
| GGCCGGCAUAGUCCCAGCCUCCGCGCUGGCGCCGGCUGGGCAACAUUCCGAGGGGACCGUCCCCUCGGUAAUGGCGAAUGGGACCCA [G10A U23G] | 0.181 |
| GAUCGGCAUGGUCCCAGCCUCCUCGCUGGCGCCGGCUGGGCAACAUUCCGAGGGGACCGUCCCCUCGGUAAUGGCGAAUGGGACCCA [G2A C3U] | 0.567 |
| GGCCGGCAUGGUCCCAGCCUCCUCGCUGGCGCCGGCUGGGCAACAUUCAGAGGGGACCGUCCCCUCGGUAAUCGCGAAUGGGACCCA [C49A G73C] | 0.293 |
| GGCCGGCAUGGUCGCAGCCUCCUCGCUGGCGCCGGCUGGCCAACAUUCCGAGGGGACCGUCCCCUCGGUAAUGGCGAAUGGGACCCA [C14G G40C] | 0 |

| Variant | self-cleavage |
| --- | --- |
| GGCCGGAAUGGUCCCAGCCUCCUCGCUGGCGCCGGCUGGGCAACAUUCAGAGGGGACCGUCCCCUCGGUAAUGGCGAAUGGGACCCA [C7A C49A] | 0.538 |
| GGCCGGCAUGGUCCCAGCCUCCUCGCGGGCGCCGGCUGGGCAACAUUCCGAGGGGACCGUCGCCUCGGUAAUGGCGAAUGGGACCCA [U27G C62G] | 1.14 |
| GGCCGGCAUGGUCCCAGCCUCCUCGCUGGCGCCGGCUGGGCAACAGUCCGAGGGGACCGUCCCCUCGGUAAUGGCGAAUGGGACUCA [U46G C85U] | 0.831 |
| GGCCGGCAUGGUCCCAGCCCCCUCGCUGGCGCCGGCUGGGCAACAUUCCGAGGGGACCGUCCCCUCGGUAAGGGCGAAUGGGACCCA [U20C U72G] | 0.0723 |
| GGCCGGCACGGUCCCAGCCUCCUCGCUGGCGCCGGCUGGGCAACAUUGCGAGGGGACCGUCCCCUCGGUAAUGGCGAAUGGGACCCA [U9C C48G] | 1.44 |
| GGCCGGCAUUGUCCCAGCCUCCUCGCUGGCGCCGGCUGGGCAACAUUCCGAGGGGACCGUCCCCUCAGUAAUGGCGAAUGGGACCCA [G10U G67A] | 0.611 |
| GGCCGGCAUGGUCCCAGCCUCCUCGCUCGCGCCGGCUGGGCAACGUUCCGAGGGGACCGUCCCCUCGGUAAUGGCGAAUGGGACCCA [G28C A45G] | 0.0811 |
| GGCCGGCAUGGUCCCAGCCUCCUCGCUGGCGCCGGCUGGGCAACAUUCCGAGGGGAUCGUCCCCUCGGUAAGGGCGAAUGGGACCCA [C57U U72G] | 0.587 |
| GGCCGGCAUGGUCCCAGCCUCCUCGCUGGCGCCGGCCGGGCAACAUUCCGAGGGGACCGUCCCCUCGGUAAUGGCGCAUGGGACCCA [U37C A77C] | 0.415 |
| GGCCGGCAUGGUCCCAGCCUCCUCGCGGGCGCCGGCUGGACAACAUUCCGAGGGGACCGUCCCCUCGGUAAUGGCGAAUGGGACCCA [U27G G40A] | 0.889 |
| GGCCGGCAUGGUCCCAGCCUCCUCGCUGACGCCGGCUGGGCAACAUUCCGAGGGGACCGUCCCCUCGGUAAAGGCGAAUGGGACCCA [G29A U72A] | 0.122 |
| GGCCGGCAUGGCCCCAGCCUCCUCGCUGGCGCCGGCUGGGCAACAUUCCGAUGGGACCGUCCCCUCGGUAAUGGCGAAUGGGACCCA [U12C G52U] | 0.35 |
| GGCCGGCAUGGUCGCAGCCUCCUCGCUGGCGCCGGCUGGGCAACAUUCCGAGGGGCCCGUCCCCUCGGUAAUGGCGAAUGGGACCCA [C14G A56C] | 0.646 |
| GGCCGGCAUGGUCCCACCCUCCUCGCUGGCGCCGGCUGGGCAACAUUCCGAGGGGACCGUCCCCUCGGUAAUGGCGAUUGGGACCCA [G17C A78U] | 0.18 |
| GGCCGGCAUGGUUCCAGCCUCCUCGCUGGCGCCGGCUGGGCAACAUUCCGAGGGGACGGUCCCCUCGGUAAUGGCGAAUGGGACCCA [C13U C58G] | 0.554 |
| GGCCGGCAUGGUCCCAGACUCCUCGCUGGCGCCGGCUGUGCAACAUUCCGAGGGGACCGUCCCCUCGGUAAUGGCGAAUGGGACCCA [C18A G39U] | 0.0369 |
| AGCCGGCAUGGUUCCAGCCUCCUCGCUGGCGCCGGCUGGGCAACAUUCCGAGGGGACCGUCCCCUCGGUAAUGGCGAAUGGGACCCA [G1A C13U] | 0.119 |
| GGCCGGCAUGGUCCCAGCCUCCUCGCUGGCGGCGGCUGGGCAACAUUCAGAGGGGACCGUCCCCUCGGUAAUGGCGAAUGGGACCCA [C32G C49A] | 0 |
| GACCGGCAUGGUCCCAGCCUCCUCGCUGGCGCCGGCUGGGCAACAUUCCGAGGGGACCGUCCCCUCGGUAAUGGCGUAUGGGACCCA [G2A A77U] | 0.0631 |
| GGCCGGCAUGGUCCCAGCCUCCUCGCUGGCGCCGGCUGGGCCACAUUCCGAGGGGACCGUCCCCUCGGUACUGGCGAAUGGGACCCA [A42C A71C] | 0.332 |
| UGCCGGCAUGGUCCCAGCAUCCUCGCUGGCGCCGGCUGGGCAACAUUCCGAGGGGACCGUCCCCUCGGUAAUGGCGAAUGGGACCCA [G1U C19A] | 0.383 |
| GCCCGGCAUCGUCCCAGCCUCCUCGCUGGCGCCGGCUGGGCAACAUUCCGAGGGGACCGUCCCCUCGGUAAUGGCGAAUGGGACCCA [G2C G10C] | 0 |

| Variant | self-cleavage |
| --- | --- |
| GGCCGGCAUGGUCCCAGCCUCCUCGCUGGCGCCAGCUGGGCAACAUUCCGACGGGACCGUCCCCUCGGUAAUGGCGAAUGGGACCCA [G34A G52C] | 0.0545 |
| GGCCGGCAUGGUCCCAGCCUCCUCGCUGGCGCCGGCUGGGCAACAUUCCGAGGGGACCGUGCCCGCGGUAAUGGCGAAUGGGACCCA [C61G U65G] | 0.72 |
| GGCCGGCAUGGUCCCAGCCUCCUCGCUGGCGCCGGCUGGGCAACAUUCCGAGGGGACCGUCCCCUCGGUAAUGGCGUAUGGGUCCCA [A77U A83U] | 0.0898 |
| GGCCGGCAUGGUCCCAGCCUCCUGGCUGGCGCCGGUUGGGCAACAUUCCGAGGGGACCGUCCCCUCGGUAAUGGCGAAUGGGACCCA [C24G C36U] | 0.0627 |
| GGCCGGCAUGGACCCAGCCUCCUCGCUGGCGCCGGCUGGACAACAUUCCGAGGGGACCGUCCCCUCGGUAAUGGCGAAUGGGACCCA [U12A G40A] | 0.374 |
| GGCCGGCAUGGCCCCAGCCUCCUCGCUGGCCCCGGCUGGGCAACAUUCCGAGGGGACCGUCCCCUCGGUAAUGGCGAAUGGGACCCA [U12C G31C] | 0.123 |
| GGCCGGCAUGGUACCAGCCUCCUCGCUGGCGCCGGCUGGGCAACAUUCCGAGGGGACCGUCCCCUCGGUAAUGGCGAAUGGAACCCA [C13A G82A] | 0.264 |
| GGCCGGCAUGGUCCCAGCCUCCUCGCUGGCGCCGGCUGGGCAACAUUCCGAGGGGACCGUCCACUCGGUAAUGGCGAUUGGGACCCA [C63A A78U] | 0.269 |
| GGCCCGCAUGGUCCCAGCCUCCUCGCUGGCGCCGGCUGGGCAACAUUACGAGGGGACCGUCCCCUCGGUAAUGGCGAAUGGGACCCA [G5C C48A] | 0.0875 |
| GGCCGGCAUGGUUCCAGCCUCCUCGCUGGCGCCGGCUGGGCAAUAUUCCGAGGGGACCGUCCCCUCGGUAAUGGCGAAUGGGACCCA [C13U C44U] | 0.185 |
| GGCCGGCAUGGUCCCAGCCUCCGCGCUGGCGCCGGCUGGGAAACAUUCCGAGGGGACCGUCCCCUCGGUAAUGGCGAAUGGGACCCA [U23G C41A] | 0.465 |
| GGCCGGCAUGGUCCCAGCCUCCUCGCUGGCGCCGGCUGGGCAACAUUCCGCGGGGACCGUCCCCUCGGUAAUGGCGAAUAGGACCCA [A51C G80A] | 0.345 |
| GCCCGGCAUGGUCCCAGCCUCCUCGCUGGCGCCGGCUGGGCAACAUUCCGAGGGGGCCGUCCCCUCGGUAAUGGCGAAUGGGACCCA [G2C A56G] | 0.0332 |
| GGCCCGCAUGUUCCCAGCCUCCUCGCUGGCGCCGGCUGGGCAACAUUCCGAGGGGACCGUCCCCUCGGUAAUGGCGAAUGGGACCCA [G5C G11U] | 0.115 |
| GGCCGGCAUGGUGCCAGCCUCCUCGCUGGCGCCGGCUGGGCAACAUUCCAAGGGGACCGUCCCCUCGGUAAUGGCGAAUGGGACCCA [C13G G50A] | 0.131 |
| GGCCGGCAUGGUCCCAGCCUCCUCGCUGGCGUCGGCUGGGCAACAUUCCGAGGCGACCGUCCCCUCGGUAAUGGCGAAUGGGACCCA [C32U G54C] | 0.992 |
| GGCCGGCAUGGUCCCAGCCUCCUCGCUGGCGCCGGCUGGGCAACAUUCCGAGGGGACCGUCCCCUAGGUGAUGGCGAAUGGGACCCA [C66A A70G] | 0.745 |
| GGCCGGCAUGGUCCCAGCCUCCUCGCUGGCGCCGGCUGGACAACAUUCCGAGGGUACCGUCCCCUCGGUAAUGGCGAAUGGGACCCA [G40A G55U] | 1.17 |
| GGCCGGCAUGGUCGCAGCCUCCUCGCUGGCGCCGGCUGGGCAACAUUCCGAGGGGACCGUCCCCUCGGUAAUGGCCAAUGGGACCCA [C14G G76C] | 0.731 |
| GGCCGGCAUGGUCUCAGGCUCCUCGCUGGCGCCGGCUGGGCAACAUUCCGAGGGGACCGUCCCCUCGGUAAUGGCGAAUGGGACCCA [C14U C18G] | 0.0875 |
